The record followed here is publication PMC12576823.

For this assay, the target named is biotinylated cLDLR-TEV-Fc antigen (cleaved form of the low-density lipoprotein receptor) (UniProt P01130). The assay is described as follows: BLI; Octet RED384, room temperature; 20 nM biotinylated antigen-Fc immobilised on SA biosensor; monomeric Fab as analyte in PBS, 0.05% Tween-20, 0.2% BSA; 2:1 heterogeneous ligand model, global fit.
Chain of UniProt P01130 (P01130 22-788): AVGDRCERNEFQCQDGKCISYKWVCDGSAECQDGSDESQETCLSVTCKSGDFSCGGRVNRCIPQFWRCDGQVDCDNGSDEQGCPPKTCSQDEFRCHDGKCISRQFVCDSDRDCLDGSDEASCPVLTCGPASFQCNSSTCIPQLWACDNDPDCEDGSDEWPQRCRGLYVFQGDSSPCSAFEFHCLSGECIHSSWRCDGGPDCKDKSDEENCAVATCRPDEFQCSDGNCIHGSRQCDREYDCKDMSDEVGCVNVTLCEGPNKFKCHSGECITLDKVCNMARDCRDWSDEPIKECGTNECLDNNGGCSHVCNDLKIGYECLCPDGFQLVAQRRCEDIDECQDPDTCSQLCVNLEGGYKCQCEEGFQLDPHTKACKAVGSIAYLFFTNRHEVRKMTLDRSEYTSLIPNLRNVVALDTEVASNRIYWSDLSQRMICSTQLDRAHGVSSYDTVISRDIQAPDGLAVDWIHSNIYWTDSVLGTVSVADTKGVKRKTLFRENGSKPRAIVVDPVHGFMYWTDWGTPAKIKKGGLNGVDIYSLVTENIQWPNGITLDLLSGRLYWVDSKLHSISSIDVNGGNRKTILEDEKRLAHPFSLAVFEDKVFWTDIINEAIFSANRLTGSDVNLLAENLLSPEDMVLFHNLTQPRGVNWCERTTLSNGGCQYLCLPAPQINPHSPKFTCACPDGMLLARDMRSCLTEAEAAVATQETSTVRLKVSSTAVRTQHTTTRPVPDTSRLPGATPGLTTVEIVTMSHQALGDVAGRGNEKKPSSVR

B1: 142F1 Fab (anti-LDLR) (Fab, V domains shown)
VH: EVQLVESGGGLVQPGGSLRLSCAASGFNVYSSSIHWVRQAPGKGLEWVASISSYYGSTYYADSVKGRFTISADTSKNTAYLQMNSLRAEDTAVYYCARWYGYGYYHPYYFGRSYGFDYWGQGTLVTVSS
VL: DIQMTQSPSSLSASVGDRVTITCRASQSVSSAVAWYQQKPGKAPKLLIYSASSLYSGVPSRFSGSRSGTDFTLTISSLQPEDFATYYCQQEWQSLFTFGQGTKVEIK
The molecule B1 displayed a Kd of 5.8 nM. This counts as single-digit nanomolar.

B2: 142F6 Fab (anti-LDLR) (Fab, V domains shown)
VH: EVQLVESGGGLVQPGGSLRLSCAASGFNFSSSSIHWVRQAPGKGLEWVASIYSSSGYTYYADSVKGRFTISADTSKNTAYLQMNSLRAEDTAVYYCARKWYYGAMDYWGQGTLVTVSS
VL: DIQMTQSPSSLSASVGDRVTITCRASQSVSSAVAWYQQKPGKAPKLLIYSASSLYSGVPSRFSGSRSGTDFTLTISSLQPEDFATYYCQQSSTIWTPLTFGQGTKVEIK
Molecule B2 registered a Kd of 16 nM.

In general, Kd refers to the equilibrium constant for the complex coming apart. A higher Kd goes with lower affinity.
